The values below come from PMC10667646.

In the data set the target is T1, His-Lmo2795 (RpiR-family transcriptional regulator) (Listeria monocytogenes) (UniProt Q8Y3P0).
T1 sequence: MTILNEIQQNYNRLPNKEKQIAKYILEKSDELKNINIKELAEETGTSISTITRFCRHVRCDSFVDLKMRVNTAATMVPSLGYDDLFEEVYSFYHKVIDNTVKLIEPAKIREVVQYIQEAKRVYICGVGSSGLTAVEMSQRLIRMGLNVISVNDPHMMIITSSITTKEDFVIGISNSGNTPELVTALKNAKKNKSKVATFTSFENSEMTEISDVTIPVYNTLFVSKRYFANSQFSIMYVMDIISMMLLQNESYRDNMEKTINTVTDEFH
In words: EMSA. To be noted: 10 mM Tris-HCl pH 7.5, 50 mM NaCl, 10% glycerol, 5 mM EDTA, 20 mM DTT, 25 C, 20 min; 8% native PAGE in 0.5x TBE at 4 C.

Regarding “CGGAACACCCAACAAATTACCAATCGAATAAACTAAAAAAGTCCTTTCAAACGAAAGGACTTTTTATTTTTAACAACAACGTCATTTTTTAAAGCTAGTTTCCGCAACTATCCACGCTAAAATATGAAAATCATTTTCATTTAATCGATATTGATAAAATCATTTTCTTGTGATATAGTCTGTTTGAAAACGCATACTTTACACTGAAACACAGTATAGAGGAGGAGTATCAGTGGGCAATTCTGTTATGGAAAAAATCAAAGGTGGGTTAG (double strand) [lmo2795-nanE operon upstream (promoter) region]”, the binding entry was “binds”. On to “CTTTAATATCCTCTAAGCCAGCATTTTTGATTTTTTTCTGTAGCACCGTCGCGCCCATTGCACTGGATCCAAGCCCCGCATCACAAGCATAGGCGATTCTTTTAACATTTTTAAAATTAAAATCATCTACTGGAGCTTCGAAAACAGAGGAAATACTACTTTTTTTGCCTTTAAGACCTTCCATTTTCTTCGCTGCATCTTG (double strand) [unspecific control, region within the lmo2795-nanE operon]”, for which the binding entry is “no binding”.
